Where a chain is given by its changes, count along the chain named. Names may count otherwise.
B1: LIBC529593-1 (Fab) (Fab, V domains shown)
VH: QVQLQESGPGLVKPSQTLSLTCTVSGGSIRRGGDYWSWIRQHPGKGLEWIGHIYYSGSTNYNPSLRSRVRISVDTSKNQFSLKLSSVTAADTAVYYCARDYDILTGYSYYYYGLDVWGQGTTVTVSS
VL: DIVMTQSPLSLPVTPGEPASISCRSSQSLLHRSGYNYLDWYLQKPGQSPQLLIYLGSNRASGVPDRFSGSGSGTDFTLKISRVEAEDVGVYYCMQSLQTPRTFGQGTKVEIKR
B2: LIBC674153-1 (Fab on yeast) (Fab, V domains shown)
VH: QVQLQESGPGLVKPSQTLSLTCTVSGGSIRRGGDYWSWIRQHPGKGLEWIGHVYYTGSTAYNPSFRGRVRISVNTYKNQFSLKLSSVTAADTAVYYCARGYDTSGYSYYYYGLDVWGQGTTVTVSS
VL: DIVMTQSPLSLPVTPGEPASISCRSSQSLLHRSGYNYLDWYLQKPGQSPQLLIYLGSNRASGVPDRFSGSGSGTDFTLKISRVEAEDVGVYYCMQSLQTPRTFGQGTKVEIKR
notes: Clone of the Fab-yeast libraries
B3: LIBC673972-1 (Fab on yeast) (Fab, V domains shown)
VH: B2 VH with V53I, S58Q, S64N, F65L, G67N, T103A
VL: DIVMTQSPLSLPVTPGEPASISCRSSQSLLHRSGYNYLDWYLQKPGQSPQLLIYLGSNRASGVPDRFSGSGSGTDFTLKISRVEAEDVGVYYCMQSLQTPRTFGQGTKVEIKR
notes: as for B2
B4: LIBC673982-1 (Fab on yeast) (Fab, V domains shown)
VH: B2 VH with V53I, A60T, G100D, T103I, L113M
VL: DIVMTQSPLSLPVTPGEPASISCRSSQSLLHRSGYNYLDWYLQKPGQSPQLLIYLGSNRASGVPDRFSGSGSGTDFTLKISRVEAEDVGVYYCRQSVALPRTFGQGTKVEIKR
notes: as for B2
B5: LIBC674090-1 (Fab on yeast) (Fab, V domains shown)
VH: B2 VH with V53I, T56A, S64N
VL: DIVMTQSPLSLPVTPGEPASISCRSSQSLLHRSGYNYLDWYLQKPGQSPQLLIYQGSNRASGVPDRFSGSGSGTDFTLKISRVEAEDVGVYYCMQSLQTPRTFGQGTKVEIKR
notes: as for B2
B6: LIBC673948-1 (Fab on yeast) (Fab, V domains shown)
VH: B2 VH with V53I, A60K, F65L, R66K, G67N, T103V
VL: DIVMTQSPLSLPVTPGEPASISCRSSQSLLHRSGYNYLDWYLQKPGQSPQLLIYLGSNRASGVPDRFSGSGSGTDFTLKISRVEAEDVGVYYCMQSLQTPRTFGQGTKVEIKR
notes: as for B2
B7: LIBC674024-1 (Fab on yeast) (Fab, V domains shown)
VH: B2 VH with Y55Q, A60K, R66K, G67N, T103V
VL: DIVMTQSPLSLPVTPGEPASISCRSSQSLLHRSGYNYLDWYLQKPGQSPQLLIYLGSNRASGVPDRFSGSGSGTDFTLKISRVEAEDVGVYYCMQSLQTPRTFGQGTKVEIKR
notes: as for B2
B8: LIBC673965-1 (Fab on yeast) (Fab, V domains shown)
VH: B2 VH with S58Q, F65L
VL: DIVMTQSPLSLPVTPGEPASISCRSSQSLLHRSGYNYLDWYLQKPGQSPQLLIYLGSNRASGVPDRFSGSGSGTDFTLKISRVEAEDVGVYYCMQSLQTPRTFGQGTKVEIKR
notes: as for B2
B9: LIBC674035-1 (Fab on yeast) (Fab, V domains shown)
VH: B2 VH with V53I, T56A, S58Q, A60K, R66K, G67N, T103I
VL: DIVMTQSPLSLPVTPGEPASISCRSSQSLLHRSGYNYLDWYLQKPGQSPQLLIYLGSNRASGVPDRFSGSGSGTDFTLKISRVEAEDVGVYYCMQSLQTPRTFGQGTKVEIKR
notes: as for B2
B10: LIBC674043-1 (Fab on yeast) (Fab, V domains shown)
VH: B2 VH with V53I, S58Q, A60T, S64N, R66K, T103A, L113M, S126R
VL: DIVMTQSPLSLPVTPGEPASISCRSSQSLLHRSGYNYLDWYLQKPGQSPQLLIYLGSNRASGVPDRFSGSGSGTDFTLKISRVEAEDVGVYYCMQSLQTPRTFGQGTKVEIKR
notes: Original clone of the Fab-yeast libraries, without the R149S reversion
B11: LIBC674002-1 (Fab on yeast) (Fab, V domains shown)
VH: B2 VH with V53I, T56K, A60E, F65L, T103V
VL: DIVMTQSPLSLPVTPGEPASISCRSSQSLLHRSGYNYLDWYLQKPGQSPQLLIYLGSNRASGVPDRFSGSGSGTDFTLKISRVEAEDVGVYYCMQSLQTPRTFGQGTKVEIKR
notes: as for B2
B12: LIBC674200-1 (Fab on yeast) (Fab, V domains shown)
VH: B2 VH with S58Q, S64N, G67N, T103V, L113M
VL: B5 VL with Q55L, D65G
notes: Original clone of the Fab-yeast libraries, without the LC G76D reversion
B13: LIBC674214-1 (Fab on yeast) (Fab, V domains shown)
VH: B2 VH with T56E, A60K, T103V
VL: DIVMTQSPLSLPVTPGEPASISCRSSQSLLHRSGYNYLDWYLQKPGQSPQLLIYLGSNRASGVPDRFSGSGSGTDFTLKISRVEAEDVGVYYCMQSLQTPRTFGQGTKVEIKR
notes: as for B2
B14: LIBC528131-1 (antibody, V domains shown)
VH: QVQLQESGPGLVKPSQTLSLTCTVSGGSIRRGGDYWSWIRQHPGKGLEWIGHIYQTGQTAYNPNLEGRATISVNTYKNQFSLKLSSVTAADTAVYYCARDYDILTGYSYYYYGMDVWGQGTTVTVSS
VL: EIVLTQSPATLSLSPGERATLSCRASQSVSSYLGWYQQKPGQAPRLLIYGASSRATGIPDRFSGSGSGTDFTLTISRLEPEDFAVYYCQQYGSSPRTFGQGTKVEIKR
B15: LIBC527827-1 (antibody, V domains shown)
VH: B14 VH with S37G, I53V, T56S, N64K, L65F, G67N, N74K, D100N, I103T, Y107H
VL: DIQMTQSPSTLSASVGDRVTITCRASQSISNYLNWYQQKPGKAPKLLIYAASSLHSGVPSRFSGSGSGTDFTLTISSLQPEDFASYYCQQYQSYPLTFGQGTKVEIKR
B16: LIBC528148-1 (antibody, V domains shown)
VH: B14 VH with T56S, A60K, N64K, E66K, N74D
VL: B15 VL with M4L
B17: LIBC528141-1 (antibody, V domains shown)
VH: B14 VH with I53V, Q58S, A60K, N64R, L65F, E66K
VL: B15 VL with M4L
B18: LIBC527912-1 (antibody, V domains shown)
VH: B14 VH with H52Y, A60K, L65F
VL: B15 VL with M4L, T10S, N31S, H55R, S85T, Q92S, S93N, Q100G, K103R
B19: LIBC527968-1 (antibody, V domains shown)
VH: B14 VH with T56S, Q58S, A60K, N64S, L65F, E66K, G67D
VL: B15 VL with M4L
B20: LIBC527906-1 (antibody, V domains shown)
VH: B14 VH with S37G, Q58S, A60N, L65F, E66K, G67D, N74D
VL: B15 VL with M4L
B21: LIBC528169-1 (antibody, V domains shown)
VH: B14 VH with T56S, Q58S, A60K, N64S, L65F, G67D
VL: B15 VL with M4L

Target: T1, Empty ND
T1 construct: It carries no receptor; the scaffold is its only protein; also called empty nanodisc
Experiment: flow cytometry, yeast-displayed Fab, 50 nM Empty ND

Row | Binder | relative binding fold change compared to LIBC523797-1(Fab)
1 | B1 | 1.14 fold
2 | B2 | 0.33 fold
3 | B3 | 0.4 fold
4 | B4 | 0.6 fold
5 | B5 | 0.99 fold
6 | B6 | 0.48 fold
7 | B7 | 0.55 fold
8 | B8 | 0.43 fold
9 | B9 | 0.56 fold
10 | B10 | 0.75 fold
11 | B11 | 0.03 fold
12 | B12 | 0.74 fold
13 | B13 | 1.09 fold

Target: T2, GFP-fused huCB1-SMALP (human, UniProt P21554 1-472)
T2 construct: Human CB1 fused to GFP in styrene maleic acid lipoparticles, made as in Luna et al. 2018; also called huCB1-GFP-SMALP; GFP-tagged huCB1-SMALP; not shown: GFP fused to huCB1
T2 sequence (P21554 whole entry, the tested form may be a part): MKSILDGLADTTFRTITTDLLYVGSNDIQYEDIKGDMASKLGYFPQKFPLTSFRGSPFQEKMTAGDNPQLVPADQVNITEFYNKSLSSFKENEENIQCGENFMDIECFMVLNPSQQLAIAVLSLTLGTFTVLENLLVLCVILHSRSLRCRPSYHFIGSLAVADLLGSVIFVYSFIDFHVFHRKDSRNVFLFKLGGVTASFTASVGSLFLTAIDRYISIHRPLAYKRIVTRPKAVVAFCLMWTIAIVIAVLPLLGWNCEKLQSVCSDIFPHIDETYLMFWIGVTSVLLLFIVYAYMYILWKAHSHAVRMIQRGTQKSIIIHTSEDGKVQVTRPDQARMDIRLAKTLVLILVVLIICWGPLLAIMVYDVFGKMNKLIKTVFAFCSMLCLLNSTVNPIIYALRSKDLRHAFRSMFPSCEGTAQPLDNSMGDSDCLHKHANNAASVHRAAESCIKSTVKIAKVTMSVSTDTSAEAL
Experiment: flow cytometry, yeast-displayed Fab, 5 nM CB1 SMALP

Row | Binder | relative binding fold change compared to LIBC523797-1(Fab)
14 | B1 | 1.42 fold
15 | B2 | 1.35 fold
16 | B3 | 1.46 fold
17 | B4 | 1.24 fold
18 | B5 | 1.2 fold
19 | B6 | 1.37 fold
20 | B7 | 1.24 fold
21 | B8 | 1.3 fold
22 | B9 | 1.29 fold
23 | B10 | 1.2 fold
24 | B11 | 1.49 fold
25 | B12 | 1.33 fold
26 | B13 | 1.17 fold

Target: T3, His-tagged huCB1-ND (human, UniProt P21554 99-414, limits assumed)
T3 construct: The real construct may be truncated or engineered; also called CB1-nanodisc; not shown: histidine purification tag
T3 sequence (P21554 99-414 limits assumed): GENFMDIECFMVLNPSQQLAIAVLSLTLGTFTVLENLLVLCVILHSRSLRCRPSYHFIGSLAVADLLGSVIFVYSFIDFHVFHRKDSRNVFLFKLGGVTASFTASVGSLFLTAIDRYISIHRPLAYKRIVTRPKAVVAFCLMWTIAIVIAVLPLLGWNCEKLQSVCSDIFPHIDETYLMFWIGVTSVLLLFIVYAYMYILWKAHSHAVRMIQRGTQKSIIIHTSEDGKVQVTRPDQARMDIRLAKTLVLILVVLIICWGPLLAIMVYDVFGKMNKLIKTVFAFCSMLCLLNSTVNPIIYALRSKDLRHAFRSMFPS
Experiment: flow cytometry, yeast-displayed Fab, 0.5 nM CB1 ND

Row | Binder | relative binding fold change compared to LIBC523797-1(Fab)
27 | B1 | 0.38 fold
28 | B2 | 1.83 fold
29 | B3 | 0.63 fold
30 | B4 | 0.78 fold
31 | B5 | 1.35 fold
32 | B6 | 0.64 fold
33 | B7 | 0.49 fold
34 | B8 | 0.65 fold
35 | B9 | 0.52 fold
36 | B10 | 1.85 fold
37 | B11 | 0.46 fold
38 | B12 | 2.08 fold
39 | B13 | 1.76 fold

Target: T2, GFP-fused huCB1-SMALP
Experiment: flow cytometry, yeast-displayed Fab, 10 nM CB1 SMALP

Row | Binder | relative binding fold change compared to LIBC523797-1(Fab)
40 | B1 | 1.06 fold
41 | B2 | 2.62 fold
42 | B3 | 2.46 fold
43 | B4 | 2.16 fold
44 | B5 | 2.85 fold
45 | B6 | 2.46 fold
46 | B7 | 2.39 fold
47 | B8 | 2.5 fold
48 | B9 | 2.74 fold
49 | B10 | 3.23 fold
50 | B11 | 2.59 fold
51 | B12 | 3.31 fold
52 | B13 | 2.1 fold

Target: human cannabinoid receptor 1 (huCB1), full length, expressed on cells (human, UniProt P21554 1-472)
Sequence (P21554 whole entry): as the sequence (P21554 whole entry, the tested form may be a part) above
Experiment: cell-based or functional assay

Row | Binder | Mean IC50 (nM), cAMP antagonist assay | Mean IC50, -fold vs Rimo | n = 1 IC50 (nM), cAMP antagonist assay | n = 1 IC50, -fold vs Rimo | n = 2 IC50 (nM), cAMP antagonist assay | n = 2 IC50, -fold vs Rimo
53 | B14 | 4.23 nM | 1.41 fold vs Rimonabant | 6.63 nM | 1.57 fold vs Rimonabant | 1.83 nM | 1.02 fold vs Rimonabant
54 | B15 | 23.7 nM | 7.89 fold vs Rimonabant | 32 nM | 7.6 fold vs Rimonabant | 15.3 nM | 8.54 fold vs Rimonabant
55 | B16 | 5.95 nM | – | 9.1 nM | – | – | –
56 | B17 | 4.05 nM | 1.35 fold vs Rimonabant | 6.26 nM | 1.49 fold vs Rimonabant | 1.84 nM | 1.03 fold vs Rimonabant
57 | B18 | 3.95 nM | 1.32 fold vs Rimonabant | 5.91 nM | 1.4 fold vs Rimonabant | 1.99 nM | 1.11 fold vs Rimonabant
58 | B19 | 4.03 nM | 1.34 fold vs Rimonabant | 6.1 nM | 1.45 fold vs Rimonabant | 1.95 nM | 1.09 fold vs Rimonabant
59 | B20 | 5.15 nM | 1.72 fold vs Rimonabant | 7.66 nM | 1.82 fold vs Rimonabant | 2.64 nM | 1.48 fold vs Rimonabant
60 | B21 | 7.81 nM | 2.6 fold vs Rimonabant | 12.3 nM | 2.92 fold vs Rimonabant | 3.31 nM | 1.85 fold vs Rimonabant

From US20250277029A1 (Amgen, published 2025)
